The text below walks through data of patent US20050282743A1 (ARBOR VITA, published 2005).

The target in assay [1] is HPV E6 #35 (cysteine-free) (HPV strain 35). Kind of assay: G assay titration, PDZ 0.5 ug/ml.
The target in another assay is T1, HPV E6 33 (modified) (HPV strain 33).
T1 construct: also called AA72.1
Kind of assay: G assay titration, PDZ 0.5 ug/ml.

The target of assay [2] is HPV E6 #35 (cysteine-free) (HPV strain 35). Kind of assay: G assay titration, PDZ 5 ug/ml.
Assay [3] concerns the target T2, HPV E6 58 (modified) (HPV strain 58).
T2 construct: also called AA75.1
Kind of assay: G assay titration, PDZ 3 ug/ml.

Assay [4] has as its target HPV E6 #66 (cysteine-free) (HPV strain 66). Put plainly: G assay titration, PDZ 5 ug/ml.
For assay [5], the target named is T2, HPV E6 58 (modified). Put plainly: G assay titration, PDZ 5 ug/ml.
The target in assay [6] is HPV E6 #66 (cysteine-free) (HPV strain 66). Kind of assay: G assay titration, PDZ 1 ug/ml.
The target in assay [7] is T2, HPV E6 58 (modified). Kind of assay: G assay titration, PDZ 0.5 ug/ml.
For assay [8], the target named is HPV E6 #66 (cysteine-free) (HPV strain 66). Kind of assay: G assay titration, PDZ 0.5 ug/ml.
The next assay concerns the target T3, HPV E6 77 (modified) (HPV strain 77).
T3 construct: also called AA78.1
Put plainly: G' assay; Classification 0 = A450 nm 0, not found to interact.

In assay [9] the target is HPV E6 #57 (cysteine-free) (HPV strain 57). The assay is described as above.

B1: GST-DLG2 PDZ domain 2 (other, not shown: a dimerising Fc or GST)
chain: ISVVEIKLFKGPKGLGFSIAGGVGNQHIPGDNSIYVTKIIDGGAAQKDGRLQVGDRLLMVNNYSLEEVTHEEAVAILKNTSEVVYLKVGNPTTI
Usually Kd stands for the free concentration of one partner at which half of the binding sites on the other are occupied at equilibrium, for simple one-to-one binding. The molecule B1 came in with a Kd in assay [1] of 200 nM.

B2: GST-KIAA1095 PDZ domain 1 (other, not shown: a dimerising Fc or GST)
chain: QGEETKSLTLVLHRDSGSLGFNIIGGRPSVDNHDGSSSEGIFVSKIVDSGPAAKEGGLQIHDRIIEVNGRDLSRATHDQAVEAFKTAKEPIVVQVLRRTPRTKMFTP
In the case of B2, the Kd with HPV E6 33 (modified) is 5 µM.

B3: GST-KIAA0147 PDZ domain 3 (other, not shown: a dimerising Fc or GST)
chain: ILEGPYPVEEIRLPRAGGPLGLSIVGGSDHSSHPFGVQEPGVFISKVLPRGLAARSGLRVGDRILAVNGQDVRDATHQEAVSALLRPCLELSLLVRRDPAEFIVTD
In assay [2], B3 registered a dissociation constant Kd of 350 nM.

B4: GST-Atrophin-1 Interacting Protein PDZ domain 1 (other, not shown: a dimerising Fc or GST)
chain: REKPLFTRDASQLKGTFLSTTLKKSNMGFGFTIIGGDEPDEFLQVKSVIPDGPAAQDGKMETGDVIVYINEVCVLGHTHADVVKLFQSVPIGQSVNLVLCRGYP
notes: also called Atrophin-1 Inter; Prot; Atr-P (1/6)
Molecule B4 gave a Kd with HPV E6 33 (modified) of 5 µM.

B5: GST-MUPP1 PDZ domain 10 (other, not shown: a dimerising Fc or GST)
chain: LPGCETTIEISKGRTGLGLSIVGGSDTLLGAIIIHEVYEEGAACKDGRLWAGDQILEVNGIDLRKATHDEAINVLRQTPQRVRLTLYRDEAPYKE
On to B5, for which the Kd in the assay with HPV E6 58 (modified) [3] stood at 5 µM.

B6: GST-KIAA0807(S) PDZ domain 1 (other, not shown: a dimerising Fc or GST)
chain: ISALGSMRPPIIIHRAGKKYGFTLRAIRVYMGDSDVYTVHHMVWHVEDGGPASEAGLRQGDLITHVNGEPVHGLVHTEVVELILKSGNKVAISTTPLENSS
As for B6, the figures for the equilibrium dissociation constant (Kd) in [4] and in assay [1] were 5 µM and 100 nM, respectively.

B7: GST-DLG1 PDZ domain 2 (other, not shown: a dimerising Fc or GST)
chain: IQLIKGPKGLGFSIAGGVGNQHIPGDNSIYVTKIIEGGAAHKDGKLQIGDKLLAVNNVCLEEVTHEEAVTALKNTSDFVYLKVAKPTSMYMNDGN
Turning to B7, binding with HPV E6 33 (modified) was put at a Kd of 5 µM. This lies in the single-digit micromolar range.

B8: GST-ERBIN PDZ domain 1 (other, not shown: a dimerising Fc or GST)
chain: QGHELAKQEIRVRVEKDPELGFSISGGVGGRGNPFRPDDDGIFVTRVQPEGPASKLLQPGDKIIQANGYSFINIEHGQAVSLLKTFQNTVELIIVREVSS
As for B8, the affinity in [2], expressed as Kd, was 400 nM. That is a sub-micromolar value.

B9: GST-KIAA1526 PDZ domain 1 (other, not shown: a dimerising Fc or GST)
chain: PDSAGPGEVRLVSLRRAKAHEGLGFSIRGGSEHGVGIYVSLVEPGSLAEKEGLRVGDQILRVNDKSLARVTHAEAVKALKGSKKLVLSVYSAGRIPGGYVTNH
As to B9, the Kd in [2] stood at 1000 nM.

B10: GST-NeDLG PDZ domain 3 (other, not shown: a dimerising Fc or GST)
chain: ILLHKGSTGLGFNIVGGEDGEGIFVSFILAGGPADLSGELRRGDRILSVNGVNLRNATHEQAAAALKRAGQSVTIVAQYRPEEYSRFESKIHDLREQMMNSSMSSGSGSLRTSEKRSLE
On to B10, for which, in the assay with HPV E6 58 (modified) [5], the Kd worked out at 5 µM.

B11: GST-TIP1 PDZ domain 1 (Table 9 insert) (other, not shown: a dimerising Fc or GST)
chain: QRVEIHKLRQGENLILGFSIGGGIDQDPSQNPFSEDKTDKGIYVTRVSEGGPAEIAGLQIGDKIMQVNGWDMTMVTHDQARKRLTKRSEEVVRLLVTRQSLQK
notes: also called TIP-1 1/1
Molecule B11 displayed a Kd in [6] of 5 µM.

B12: GST-Outer Membrane PDZ domain 1 (other, not shown: a dimerising Fc or GST)
chain: LLTEEEINLTRGPSGLGFNIVGGTDQQYVSNDSGIYVSRIKENGAAALDGRLQEGDKILSVNGQDLKNLLHQDAVDLFRNAGYAVSLRVQHRLQVQNGIHS
B12 showed a Kd with HPV E6 58 (modified) [7] of 5 µM.

B13: GST-FLJ00011 PDZ domain 1 (other, not shown: a dimerising Fc or GST)
chain: KNPSGELKTVTLSKMKQSLGISISGGIESKVQPMVKIEKIFPGGAAFLSGALQAGFELVAVDGENLEQVTHQRAVDTIRRAYRNKAREPMELVVRVPGPSPRPSPSD
With B13, the dissociation constant Kd in assay [2] came out at 350 nM. This lies in the sub-micromolar range.

B14: GST-BAI-1 Associated Protein PDZ domain 2 (other, not shown: a dimerising Fc or GST)
chain: PSELKGKFIHTKLRKSSRGFGFTVVGGDEPDEFLQIKSLVLDGPAALDGKMETGDVIVSVNDTCVLGHTHAQVVKIFQSIPIGASVDLELCRGYPLPFDPDDPN
notes: also called BAI-1 (2/6)
B14 yielded a Kd in assay [8] of 3000 nM. Besides, the binding result (with HPV E6 77 (modified); in assay [9]) was “no binding (tested: 10 uM peptide)” each time.

B15: GST-PSD95 PDZ domain 3 (other, not shown: a dimerising Fc or GST)
chain: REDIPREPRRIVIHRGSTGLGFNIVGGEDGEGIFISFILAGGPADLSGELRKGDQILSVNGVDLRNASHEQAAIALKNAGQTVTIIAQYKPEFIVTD
Molecule B15 showed a Kd with HPV E6 33 (modified) of 5 µM. This lies in the single-digit micromolar range.

B16: GST-NeDLG PDZ domain 2 (other, not shown: a dimerising Fc or GST)
chain: ITLLKGPKGLGFSIAGGIGNQHIPGDNSIYITKIIEGGAAQKDGRLQIGDRLLAVNNTNLQDVRHEEAVASLKNTSDMVYLKVAKPGSLE
In turn, B16 registered a Kd in assay [8] of 3500 nM. This lies in the single-digit micromolar range.

B17: GST-NeDLG PDZ domains 1, 2 (other, not shown: a dimerising Fc or GST)
chain: YEEIVLERGNSGLGFSIAGGIDNPHVPDDPGIFITKIIPGGAAAMDGRLGVNDCVLRVNEVDVSEVVHSRAVEALKEAGPVVRLVVRRRQPPPETIMEVNLLKGPKGLGFSIAGGIGNQHIPGDNSIYITKIIEGGAAQKDGRLQIGDRLLAVNNTNLQDVRHEEAVASLKNTSDMVYLKVAKPGSL
notes: domain: PDZ domains 1-2; also called NeDLG 1, 2
As to B17, the Kd in [8] was 1000 nM.

B18: GST-Atrophin-1 Interacting Protein PDZ domain 2 (other)
chain: LSGATQAELMTLTIVKGAQGFGFTIADSPTGQRVKQILDIQGCPGLCEGDLIVEINQQNVQNLSHTEVVDILKDCPIGSETSLIIHRGGFF
The molecule B18 returned a dissociation constant (Kd) in assay [2] of 800 nM. This counts as sub-micromolar.
